Measured values: IntAct's records for PubMed 29656893

B1: Shieldin complex subunit 3 (Homo sapiens), Q6ZNX1 (parent)
chain: MTTEVILHYRPCESDPTQLPKIAEKAIQDFPTRPLSRFIPWFPYDGSKLPLRPKRSPPVISEEAAEDVKQYLTISEHDAKSHSYDCTVDLLEFQPSLKKQHLTWSHTLKEQTNSGNLGKQSEKGKQHKRRSWSISLPSNNCTKNVSPLSKKLQDSLKALNLHSLYRARWTIEHTICNSQTLEDIWTKLNQIIRHNELPSCNATIQRHLGQIWVFCDIMYCEYVGSLLKGRLALTGKINLFVHKYGVIFSM

Variants of: B1
Settings: with md2l2_human MAD2L2, Q9UI95
md2l2_human MAD2L2, Q9UI95, sequence (Q9UI95 whole entry): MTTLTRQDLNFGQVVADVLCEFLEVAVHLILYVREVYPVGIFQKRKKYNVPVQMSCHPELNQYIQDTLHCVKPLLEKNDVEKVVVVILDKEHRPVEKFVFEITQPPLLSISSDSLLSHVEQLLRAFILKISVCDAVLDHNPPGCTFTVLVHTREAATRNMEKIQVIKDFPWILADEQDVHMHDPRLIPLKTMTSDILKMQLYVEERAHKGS

| effect of a mutation on the interaction | Variant |
| --- | --- |
| disrupting interaction strength | MTTEVILHYRPCESDPTQLPKIAEKAIQDFPTRPLSRFIPWFPYDGSKLPLRAKRSPAVISEEAAEDVKQYLTISEHDAKSHSYDCTVDLLEFQPSLKKQHLTWSHTLKEQTNSGNLGKQSEKGKQHKRRSWSISLPSNNCTKNVSPLSKKLQDSLKALNLHSLYRARWTIEHTICNSQTLEDIWTKLNQIIRHNELPSCNATIQRHLGQIWVFCDIMYCEYVGSLLKGRLALTGKINLFVHKYGVIFSM [P53A;P58A] |
